Our source for the Km values is article PMC8551311, “Energy transfer between the nicotinamide nucleotide transhydrogenase and ATP synthase of Escherichia coli” (Scientific Reports, 2021).

Holding throughout (assay): purified protein
Assay type in all cases: biochemical, Escherichia coli

Substrate in data set [1]: NC(=O)C1=CN([C@@H]2O[C@H](COP(=O)(O)OP(=O)(O)OC[C@H]3O[C@@H](n4cnc5c(N)ncnc54)[C@H](O)[C@@H]3O)[C@@H](O)[C@H]2O)C=CC1
Particulars: apparent, forward reaction, 0.5 mM NADP+ held constant by glutathione reductase/oxidized glutathione, 50 mM HEPES pH 7.5, 0.1% DDM.

Substrate in data set [2]: NC(=O)C1=CN([C@@H]2O[C@H](COP(=O)(O)OP(=O)(O)OC[C@H]3O[C@@H](n4cnc5c(N)ncnc54)[C@H](OP(=O)(O)O)[C@@H]3O)[C@@H](O)[C@H]2O)C=CC1
Particulars: apparent, reverse reaction, 0.5 mM NAD+ held constant by lactate dehydrogenase/pyruvate, 50 mM HEPES pH 7.5, 0.1% DDM.

Substrate in data set [3]: NC(=O)c1ccc[n+]([C@@H]2O[C@H](COP(=O)(O)OP(=O)(O)OC[C@H]3O[C@@H](n4cnc5c(N)ncnc54)[C@H](O)[C@@H]3O)[C@@H](O)[C@H]2O)c1
Particulars: apparent, reverse reaction, 100 μM NADPH held constant by glucose-6-phosphate dehydrogenase/D-glucose-6-phosphate, 5 mM MgCl2, 50 mM HEPES pH 7.5, 0.1% DDM.

Substrate in data set [4]: NC(=O)c1ccc[n+]([C@@H]2O[C@H](COP(=O)(O)OP(=O)(O)OC[C@H]3O[C@@H](n4cnc5c(N)ncnc54)[C@H](OP(=O)(O)O)[C@@H]3O)[C@@H](O)[C@H]2O)c1
The note with it: apparent, forward reaction, NADH held constant by alcohol dehydrogenase/ethanol (50 μM in methods, 500 μM in results), 6 mM hydrazine, 50 mM HEPES pH 7.5, 0.1% DDM.

B1: E. coli transhydrogenase (TH, EcTH) (Escherichia coli K-12) (protein)
chain 1: MRIGIPRERLTNETRVAATPKTVEQLLKLGFTVAVESGAGQLASFDDKAFVQAGAEIVEGNSVWQSEIILKVNAPLDDEIALLNPGTTLVSFIWPAQNPELMQKLAERNVTVMAMDSVPRISRAQSLDALSSMANIAGYRAIVEAAHEFGRFFTGQITAAGKVPPAKVMVIGAGVAGLAAIGAANSLGAIVRAFDTRPEVKEQVQSMGAEFLELDFKEEAGSGDGYAKVMSDAFIKAEMELFAAQAKEVDIIVTTALIPGKPAPKLITREMVDSMKAGSVIVDLAAQNGGNCEYTVPGEIFTTENGVKVIGYTDLPGRLPTQSSQLYGTNLVNLLKLLCKEKDGNITVDFDDVVIRGVTVIRAGEITWPAPPIQVSAQPQAAQKAAPEVKTEEKCTCSPWRKYALMALAIILFGWMASVAPKEFLGHFTVFALACVVGYYVVWNVSHALHTPLMSVTNAISGIIVVGALLQIGQGGWVSFLSFIAVLIASINIFGGFTVTQRMLKMFRKN
chain 2: MSGGLVTAAYIVAAILFIFSLAGLSKHETSRQGNNFGIAGMAIALIATIFGPDTGNVGWILLAMVIGGAIGIRLAKKVEMTEMPELVAILHSFVGLAAVLVGFNSYLHHDAGMAPILVNIHLTEVFLGIFIGAVTFTGSVVAFGKLCGKISSKPLMLPNRHKMNLAALVVSFLLLIVFVRTDSVGLQVLALLIMTAIALVFGWHLVASIGGADMPVVVSMLNSYSGWAAAAAGFMLSNDLLIVTGALVGSSGAILSYIMCKAMNRSFISVIAGGFGTDGSSTGDDQEVGEHREITAEETAELLKNSHSVIITPGYGMAVAQAQYPVAEITEKLRARGINVRFGIHPVAGRLPGHMNVLLAEAKVPYDIVLEMDEINDDFADTDTVLVIGANDTVNPAAQDDPKSPIAGMPVLEVWKAQNVIVFKRSMNTGYAGVQNPLFFKENTHMLFGDAKASVDAILKAL
One may read the Km as the substrate concentration at which the rate is half of its maximum. Regarding B1, the Km came to 6.8 ± 1 µM in data set [1], 4.1 ± 1.2 µM in data set [2], 108 ± 12 µM in data set [3] and 37 ± 7 µM in data set [4].
